# From article PMC10365314, “Noncanonical contribution of microglial transcription factor NR4A1 to post-stroke recovery through TNF mRNA destabilization”
# B1: GGACU probe, m6A (ssRNA)
# RNA: CGUCUCGGACUCGGACUGCU
# modifications: m6A at positions 9 and 15 (as printed: CGUCUCGG(m6A)CUCGG(m6A)CUGCU)
# Biological target: His-GST-NR4A1 (Mus musculus, UniProt P12813 1-601)
# Experiment: EMSA; glutaraldehyde 0.2% added after binding; 10 mM HEPES pH 7.6, 50 mM KCl, 1 mM EDTA, 0.05% Triton X-100, 5% glycerol, 1 mM DTT, 40 U/ml RNasin; REMSA: 2 nM probe, room temperature 30 min; pull-down: 50 pmol probe, 250 ug extract, 4 C 3 h
# Conditions: protein: recombinant; tags: His-GST; label: 5' biotin; single strand
# His-GST-NR4A1, sequence (P12813 whole entry): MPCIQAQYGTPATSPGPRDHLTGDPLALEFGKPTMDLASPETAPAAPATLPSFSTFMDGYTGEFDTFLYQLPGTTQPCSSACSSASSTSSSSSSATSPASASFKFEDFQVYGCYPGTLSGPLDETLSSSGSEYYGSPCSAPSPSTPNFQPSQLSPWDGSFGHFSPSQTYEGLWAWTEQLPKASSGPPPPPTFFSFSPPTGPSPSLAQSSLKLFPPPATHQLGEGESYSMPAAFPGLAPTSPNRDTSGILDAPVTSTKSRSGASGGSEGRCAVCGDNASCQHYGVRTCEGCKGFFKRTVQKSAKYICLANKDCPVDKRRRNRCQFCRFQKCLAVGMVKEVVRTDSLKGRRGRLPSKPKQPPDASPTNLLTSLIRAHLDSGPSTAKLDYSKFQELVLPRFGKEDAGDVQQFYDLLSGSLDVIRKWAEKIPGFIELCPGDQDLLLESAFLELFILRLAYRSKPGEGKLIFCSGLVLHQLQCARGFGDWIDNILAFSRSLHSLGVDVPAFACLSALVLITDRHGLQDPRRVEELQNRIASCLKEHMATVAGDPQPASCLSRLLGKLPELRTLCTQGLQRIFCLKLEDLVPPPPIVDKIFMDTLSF
binder,measurement,value
B1,binding result,binds
